The text below walks through data of publication PMC5923425, “Structural analysis of human ARS2 as a platform for co-transcriptional RNA sorting” (Nature Communications, 2018).

The labels stand for the following.
B1: EGFP–ARS2 wt [human] / hMTR4 [human (endogenous in HEK 293T/17)] (parent complex)
chain 1: MGDSDDEYDRRRRDKFRRERSDYDRSRERDERRRGDDWNDREWDRGRERRSRGEYRDYDRNRRERFSPPRHELSPPQKRMRRDWDEHSSDPYHSGYEMPYAGGGGGPTYGPPQPWGHPDVHIMQHHVLPIQARLGSIAEIDLGVPPPVMKTFKEFLLSLDDSVDETEAVKRYNDYKLDFRRQQMQDFFLAHKDEEWFRSKYHPDEVGKRRQEARGALQNRLRVFLSLMETGWFDNLLLDIDKADAIVKMLDAAVIKMEGGTENDLRILEQEEEEEQAGKPGEPSKKEEGRAGAGLGDGERKTNDKDEKKEDGKQAENDSSNDDKTKKSEGDGDKEEKKEDSEKEAKKSSKKRNRKHSGDDSFDEGSVSESESESESGQAEEEKEEAEALKEKEKPKEEEWEKPKDAAGLECKPRPLHKTCSLFMRNIAPNISRAEIISLCKRYPGFMRVALSEPQPERRFFRRGWVTFDRSVNIKEICWNLQNIRLRECELSPGVNRDLTRRVRNINGITQHKQIVRNDIKLAAKLIHTLDDRTQLWASEPGTPPLPTSLPSQNPILKNITDYLIEEVSAEEEELLGSSGGAPPEEPPKEGNPAEINVERDEKLIKVLDKLLLYLRIVHSLDYYNTCEYPNEDEMPNRCGIIHVRGPMPPNRISHGEVLEWQKTFEEKLTPLLSVRESLSEEEAQKMGRKDPEQEVEKFVTSNTQELGKDKWLCPLSGKKFKGPEFVRKHIFNKHAEKIEEVKKEVAFFNNFLTDAKRPALPEIKPAQPPGPAQSLTPGLPYPHQTPQGLMPYGQPRPPILGYGAGAVRPAVPTGGPPYPHAPYGAGRGNYDAFRGQGGYPGKPRNRMVRGDPRAIVEYRDLDAPDDVDFF
chain 2: MADAFGDELFSVFEGDSTTAAGTKKDKEKDKGKWKGPPGSADKAGKRFDGKLQSESTNNGKNKRDVDFEGTDEPIFGKKPRIEESITEDLSLADLMPRVKVQSVETVEGCTHEVALPAEEDYLPLKPRVGKAAKEYPFILDAFQREAIQCVDNNQSVLVSAHTSAGKTVCAEYAIALALREKQRVIFTSPIKALSNQKYREMYEEFQDVGLMTGDVTINPTASCLVMTTEILRSMLYRGSEVMREVAWVIFDEIHYMRDSERGVVWEETIILLPDNVHYVFLSATIPNARQFAEWICHLHKQPCHVIYTDYRPTPLQHYIFPAGGDGLHLVVDENGDFREDNFNTAMQVLRDAGDLAKGDQKGRKGGTKGPSNVFKIVKMIMERNFQPVIIFSFSKKDCEAYALQMTKLDFNTDEEKKMVEEVFSNAIDCLSDEDKKLPQVEHVLPLLKRGIGIHHGGLLPILKETIEILFSEGLIKALFATETFAMGINMPARTVLFTNARKFDGKDFRWISSGEYIQMSGRAGRRGMDDRGIVILMVDEKMSPTIGKQLLKGSADPLNSAFHLTYNMVLNLLRVEEINPEYMLEKSFYQFQHYRAIPGVVEKVKNSEEQYNKIVIPNEESVVIYYKIRQQLAKLGKEIEEYIHKPKYCLPFLQPGRLVKVKNEGDDFGWGVVVNFSKKSNVKPNSGELDPLYVVEVLLRCSKESLKNSATEAAKPAKPDEKGEMQVVPVLVHLLSAISSVRLYIPKDLRPVDNRQSVLKSIQEVQKRFPDGIPLLDPIDDMGIQDQGLKKVIQKVEAFEHRMYSHPLHNDPNLETVYTLCEKKAQIAIDIKSAKRELKKARTVLQMDELKCRKRVLRRLGFATSSDVIEMKGRVACEISSADELLLTEMMFNGLFNDLSAEQATALLSCFVFQENSSEMPKLTEQLAGPLRQMQECAKRIAKVSAEAKLEIDEETYLSSFKPHLMDVVYTWATGATFAHICKMTDVFEGSIIRCMRRLEELLRQMCQAAKAIGNTELENKFAEGITKIKRDIVFAASLYL
B2: EGFP–ARS2 wt [human] / RBM7 [human (endogenous in HEK 293T/17)] (parent complex)
chain 1: B1 chain 1
chain 2: MGAAAAEADRTLFVGNLETKVTEELLFELFHQAGPVIKVKIPKDKDGKPKQFAFVNFKHEVSVPYAMNLLNGIKLYGRPIKIQFRSGSSHAPQDVSLSYPQHHVGNSSPTSTSPSRYERTMDNMTSSAQIIQRSFSSPENFQRQAVMNSALRQMSYGGKFGSSPLDQSGFSPSVQSHSHSFNQSSSSQWRQGTPSSQRKVRMNSYPYLADRHYSREQRYTDHGSDHHYRGKRDDFFYEDRNHDDWSHDYDNRRDSSRDGKWRSSRH
B3: EGFP–ARS2 wt [human] / ZCCHC8 [human (endogenous in HEK 293T/17)] (parent complex)
chain 1: B1 chain 1
chain 2: MAAEVYFGDLELFEPFDHPEESIPKPVHTRFKDDDGDEEDENGVGDAELRERLRQCEETIEQLRAENQELKRKLNILTRPSGILVNDTKLDGPILQILFMNNAISKQYHQEIEEFVSNLVKRFEEQQKNDVEKTSFNLLPQPSSIVLEEDHKVEESCAIKNNKEAFSVVGSVLYFTNFCLDKLGQPLLNENPQLSEGWEIPKYHQVFSHIVSLEGQEIQVKAKRPKPHCFNCGSEEHQMKDCPMPRNAARISEKRKEYMDACGEANNQNFQQRYHAEEVEERFGRFKPGVISEELQDALGVTDKSLPPFIYRMRQLGYPPGWLKEAELENSGLALYDGKDGTDGETEVGEIQQNKSVTYDLSKLVNYPGFNISTPRGIPDEWRIFGSIPMQACQQKDVFANYLTSNFQAPGVKSGNKRSSSHSSPGSPKKQKNESNSAGSPADMELDSDMEVPHGSQSSESFQFQPPLPPDTPPLPRGTPPPVFTPPLPKGTPPLTPSDSPQTRTASGAVDEDALTLEELEEQQRRIWAALEQAESVNSDSDVPVDTPLTGNSVASSPCPNELDLPVPEGKTSEKQTLDEPEVPEIFTKKSEAGHASSPDSEVTSLCQKEKAELAPVNTEGALLDNGSVVPNCDISNGGSQKLFPADTSPSTATKIHSPIPDMSKFATGITPFEFENMAESTGMYLRIRSLLKNSPRNQQKNKKASE
B4: EGFP–ARS2 wt [human] / ZFC3H1 [human (endogenous in HEK 293T/17)] (parent complex)
chain 1: B1 chain 1
chain 2: MATADTPAPASSGLSPKEEGELEDGEISDDDNNSQIRSRSSSSSSGGGLLPYPRRRPPHSARGGGSGGGGGSSSSSSSSQQQLRNFSRSRHASERGHLRGPSSYRPKEPFRSHPPSVRMPSSSLSESSPRPSFWERSHLALDRFRFRGRPYRGGSRWSRGRGVGERGGKPGCRPPLGGGAGSGFSSSQSWREPSPPRKSSKSFGRSPSRKQNYSSKNENCVEETFEDLLLKYKQIQLELECINKDEKLALSSKEENVQEDPKTLNFEDQTSTDNVSITKDSSKEVAPEEKTQVKTFQAFELKPLRQKLTLPGDKNRLKKVKDGAKPLSLKSDTTDSSQGLQDKEQNLTRRISTSDILSEKKLGEDEEELSELQLRLLALQSASKKWQQKEQQVMKESKEKLTKTKTVQQKVKTSTKTHSAKKVSTTAKQALRKQQTKAWKKLQQQKEQERQKEEDQRKQAEEEERRKREEEIRKIRDLSNQEEQYNRFMKLVGGKRRSRSKSSDPDLRRSLDKQPTDSGGGIYQYDNYEEVAMDTDSETSSPAPSPVQPPFFSECSLGYFSPAPSLSLPPPPQVSSLPPLSQPYVEGLCVSLEPLPPLPPLPPLPPEDPEQPPKPPFADEEEEEEMLLREELLKSLANKRAFKPEETSSNSDPPSPPVLNNSHPVPRSNLSIVSINTVSQPRIQNPKFHRGPRLPRTVISLPKHKSVVVTLNDSDDSESDGEASKSTNSVFGGLESMIKEARRTAEQASKPKVPPKSEKENDPLRTPEALPEEKKIEYRLLKEEIANREKQRLIKSDQLKTSSSSPANSDVEIDGIGRIAMVTKQVTDAESKLKKHRILLMKDESVLKNLVQQEAKKKESVRNAEAKITKLTEQLQATEKILNVNRMFLKKLQEQIHRVQQRVTIKKALTLKYGEELARAKAVASKEIGKRKLEQDRFGPNKMMRLDSSPVSSPRKHSAELIAMEKRRLQKLEYEYALKIQKLKEARALKAKEQQNISPVVEEEPEFSLPQPSLHDLTQDKLTLDTEENDVDDEILSGSSRERRRSFLESNYFTKPNLKHTDTANKECINKLNKNTVEKPELFLGLKIGELQKLYSKADSLKQLILKTTTGITEKVLHGQEISVDVDFVTAQSKTMEVKPCPFRPYHSPLLVFKSYRFSPYYRTKEKLPLSSVSYSNMIEPDQCFCRFDLTGTCNDDDCQWQHIQDYTLSRKQLFQDILSYNLSLIGCAETSTNEEITASAEKYVEKLFGVNKDRMSMDQMAVLLVSNINESKGHTPPFTTYKDKRKWKPKFWRKPISDNSFSSDEEQSTGPIKYAFQPENQINVPALDTVVTPDDVRYFTNETDDIANLEASVLENPSHVQLWLKLAYKYLNQNEGECSESLDSALNVLARALENNKDNPEIWCHYLRLFSKRGTKDEVQEMCETAVEYAPDYQSFWTFLHLESTFEEKDYVCERMLEFLMGAAKQETSNILSFQLLEALLFRVQLHIFTGRCQSALAILQNALKSANDGIVAEYLKTSDRCLAWLAYIHLIEFNILPSKFYDPSNDNPSRIVNTESFVMPWQAVQDVKTNPDMLLAVFEDAVKACTDESLAVEERIEACLPLYTNMIALHQLLERYEAAMELCKSLLESCPINCQLLEALVALYLQTNQHDKARAVWLTAFEKNPQNAEVFYHMCKFFILQNRGDNLLPFLRKFIASFFKPGFEKYNNLDLFRYLLNIPGPIDIPSRLCKGNFDDDMFNHQVPYLWLIYCLCHPLQSSIKETVEAYEAALGVAMRCDIVQKIWMDYLVFANNRAAGSRNKVQEFKFFTDLVNRCLVTVPARYPIPFSSADYWSNYEFHNRVIFFYLSCVPKTQHSKTLERFCSVMPANSGLALRLLQHEWEESNVQILKLQAKMFTYNIPTCLATWKIAIAAEIVLKGQREVHRLYQRALQKLPLCASLWKDQLLFEASEGGKTDNLRKLVSKCQEIGVSLNELLNLNSNKTESKNH
B5: EGFP–ARS2 wt [human] / NCBP3 (endogenous) [human (endogenous in HEK 293T/17)] (parent complex)
chain 1: B1 chain 1
chain 2: MAAVRGLRVSVKAEAPAGPALGLPSPEAESGVDRGEPEPMEVEEGELEIVPVRRSLKELIPDTSRRYENKAGSFITGIDVTSKEAIEKKEQRAKRFHFRSEVNLAQRNVALDRDMMKKAIPKVRLETIYICGVDEMSTQDVFSYFKEYPPAHIEWLDDTSCNVVWLDEMTATRALINMSSLPAQDKIRSRDASEDKSAEKRKKDKQEDSSDDDEAEEGEVEDENSSDVELDTLSQVEEESLLRNDLRPANKLAKGNRLFMRFATKDDKKELGAARRSQYYMKYGNPNYGGMKGILSNSWKRRYHSRRIQRDVIKKRALIGDDVGLTSYKHRHSGLVNVPEEPIEEEEEEEEEEEEEEEEDQDMDADDRVVVEYHEELPALKQPRERSASRRSSASSSDSDEMDYDLELKMISTPSPKKSMKMTMYADEVESQLKNIRNSMRADSVSSSNIKNRIGNKLPPEKFADVRHLLDEKRQHSRPRPPVSSTKSDIRQRLGKRPHSPEKAFSSNPVVRREPSSDVHSRLGVPRQDSKGLYADTREKKSGNLWTRLGSAPKTKEKNTKKVDHRAPGAEEDDSELQRAWGALIKEKEQSRQKKSRLDNLPSLQIEVSRESSSGSEAES

The first assay covers variants of B1. Description: EGFP pull down, LC–MS/MS (AP–MS, TMT labelled); HEK 293T/17 cells; three independent affinity purifications per bait; read off a plot.
With chain 1 K719A, chain 1 K722A, chain 1 K734A, the screen value is about -2.7.

A further assay covers variants of B2. The description is as above.
On to chain 1 K719A, chain 1 K722A, chain 1 K734A, for which the screen value is about -1.8.

In the next assay the parent is B3. Described as above.
Consider chain 1 K719A, chain 1 K722A, chain 1 K734A, for which the screen value is about -1.7.

In another assay the parent is B4. The assay is described as above.
Take chain 1 K719A, chain 1 K722A, chain 1 K734A: the screen value was about -2.8.

Variants of B5 are the subject of the next assay. Described as above.
chain 1 K719A, chain 1 K722A, chain 1 K734A: the screen value is about -3.1.
